Test system: Proteinase-K
Experiment: Proteinase-K protection test of Beta Lactamase (BLA) preparations, Nitrocefin Assay (FIGS. 3B, 3C)
Format: biochemical
Settings: PK overnight, 0.1 mg/ml in 1x PBS, 37° C.; 250 μg/ml nitrocefin, absorbance 486 nm
Description: To verify enzyme encapsulation and activity, three separate preparations were incubated with and without Proteinase-K (PK). […] In this example, the three preparations were exposed to Proteinase-K (Thermo Scientific Pierce Proteinase K) enzyme overnight at a concentration of 0.1 mg/ml in 1× phosphate buffered saline (PBS) solution at 37° C. Enzyme activity assay was done on the samples post incubation with PK using a Nitrocefin Assay (BLA hydrolysis of nitrocefin produces a shift of UV absorption inside the visible light spectrum from intact nitrocefin (˜380 nm) to degraded nitrocefin (˜500 nm) allowing visual detection of BLA activity on a macroscopic level). Each reaction was 100 μl in total and contained 250 μg/ml nitrocefin as substrate. Absorbance was measured at 486 nm.

## Beta Lactamase (BLA) [bare unencapsulated enzyme]
  BLA enzyme activity when exposed to Proteinase-K (PK): loses all activity
